Changes are numbered by the printed parent chain. Names and notes keep the numbering of the source.
B1: EGFP-Smad2 WT: mouse EGFP-Smad2 wild type transfected into HeLa cells (protein, UniProt Q62432 2-467, looked up)
Mothers against …: SSILPFTPPVVKRLLGWKKSAGGSGGAGGGEQNGQEEKWCEKAVKSLVKKLKKTGRLDELEKAITTQNCNTKCVTIPSTCSEIWGLSTANTVDQWDTTGLYSFSEQTRSLDGRLQVSHRKGLPHVIYCRLWRWPDLHSHHELKAIENCEYAFNLKKDEVCVNPYHYQRVETPVLPPVLVPRHTEILTELPPLDDYTHSIPENTNFPAGIEPQSNYIPETPPPGYISEDGETSDQQLNQSMDTGSPAELSPTTLSPVNHSLDLQPVTYSEPAFWCSIAYYELNQRVGETFHASQPSLTVDGFTDPSNSERFCLGLLSNVNRNATVEMTRRHIGRGVRLYYIGGEVFAECLSDSAIFVQSPNCNQRYGWHPATVCKIPPGCNLKIFNNQEFAALLAQSVNQGFEAVYQLTRMCTIRMSFVKGWGAEYRRQTVTSTPCWIELHLNGPLQWLDKVLTQMGSPSVRCSSMS
modifications: EGFP fusion
notes: mouse EGFP-Smad2 wild type transfected into HeLa cells
B2: Smad2-W422A: W422A mutant of full-length Smad2; specific PI(4,5)P2 binding-compromised (protein)
chain: MSSILPFTPPVVKRLLGWKKSAGGSGGAGGGEQNGQEEKWCEKAVKSLVKKLKKTGRLDELEKAITTQNCNTKCVTIPSTCSEIWGLSTANTVDQWDTTGLYSFSEQTRSLDGRLQVSHRKGLPHVIYCRLWRWPDLHSHHELKAIENCEYAFNLKKDEVCVNPYHYQRVETPVLPPVLVPRHTEILTELPPLDDYTHSIPENTNFPAGIEPQSNYIPETPPPGYISEDGETSDQQLNQSMDTGSPAELSPTTLSPVNHSLDLQPVTYSEPAFWCSIAYYELNQRVGETFHASQPSLTVDGFTDPSNSERFCLGLLSNVNRNATVEMTRRHIGRGVRLYYIGGEVFAECLSDSAIFVQSPNCNQRYGWHPATVCKIPPGCNLKIFNNQEFAALLAQSVNQGFEAVYQLTRMCTIRMSFVKGAGAEYRRQTVTSTPCWIELHLNGPLQWLDKVLTQMGSPSVRCSSMS
modifications: left off: His6, N-terminal, state not stated
B3: Smad2-K420A: K420A mutant of full-length Smad2; predominantly TβRI binding-compromised (protein)
chain: B2 chain with K420A, A422W
modifications: left off: His6, N-terminal, state not stated
B4: Smad2 WT: bacterially expressed full-length Smad2 wild-type (protein)
chain: B2 chain with A422W
modifications: left off: His6, N-terminal, state not stated
notes: bacterially expressed full-length Smad2 wild-type

Tested on: HeLa cells
Assay: TIRF imaging of PM localization of EGFP-Smad2
Type: cell-based
Settings: for PM localization after TGF-β stimulation: HeLa cells with endogenous Smad2 suppressed
Protocol: Figure 4 Quantitative imaging analyses of spatiotemporal dynamics of Smad2.A, TIRF images of mouse EGFP-Smad2-WT transfected into HeLa cells whose endogenous Smad2 is suppressed by siRNA. Images were taken before and 5 min after TGF-β stimulation (10 ng/ml) with and without PI(4,5)P2 depletion. A pseudo-coloring scheme was used with orange and blue representing the highest and the lowest intensity, respectively. B, kinetics of TGF-β stimulated (10 ng/ml) PM localization of EGFP-Smad2-WT (blue), -K420A (green), and -W422A (orange) transfected into HeLa cells the endogenous Smad2 of which was suppressed by siRNA. For EGFP-Smad2-WT, the effect of PI(4,5)P2 depletion (black) and TβRI inhibition by SB-431542 (10 μM for 36 h) (red) were measured. Data points indicate average ±S.D. (n = 10 cells). C, spatially resolved PM PI(4,5)P2 concentration ([PI(4,5)P2]) profiles calculated from two-channel cross-sectional images of HeLa cells (before and 5 min after 10 ng/ml TGF-β stimulation and after PI(4,5)P2 depletion). Each cell is a representative of more than ten cells analyzed. Spatially averaged [PI(4,5)P2] values for each cell type are shown. The z-axis scale indicates [PI(4,5)P2] in mol%. A pseudo-coloring scheme with red and blue representing the highest (1.5 mol%) and the lowest (0 mol%) concentration, respectively, is used to illustrate the spatial [PI(4,5)P2] heterogeneity. Scale bars indicate 10 μm. D, dual color single-molecule tracking of EGFP-PLCδ-PH and SNAP-TMR-labeled TβRI at the PM of HeLa cells. Time courses of the half-life of colocalization for SNAP-TMR-labeled TβRI and EGFP-PLCδ-PH after 10 ng/ml TGF-β stimulation were determined with (orange) and without (blue) PI(4,5)P2 depletion. Data points indicate average ±S.D. (n = 10 cells). E, time courses of the half-life of colocalization for SNAP-TMR-labeled TβRI and EGFP-Smad2 determined by dual color single-molecule tracking analysis. Colocalization of TβRI with EGFP-Smad2-WT (blue), -K420A (green), -W422A (orange), E425K (red), Y426A (cyan), and -R427A/R428A (black) transfected into HeLa cells whose endogenous Smad2 was suppressed by siRNA is shown. For EGFP-Smad2-WT, the effect of PI(4,5)P2 depletion (purple) was measured. Data points indicate average ±S.D. (n = 10 cells). […] TEXT PRINTED IN THE PICTURE: (C) PI(4,5)P2: [PI(4,5)P2] = 1.05 ± 0.20 mol% (HeLa unstimulated); [PI(4,5)P2] = 1.00 ± 0.40 mol% (HeLa 5 min after TGFβ); [PI(4,5)P2] = 0.16 ± 0.08 mol% (HeLa After PI(4,5)P2 depletion) DOUBTS OF THE COPYIST ABOUT THIS PICTURE: Panel C: the printed values are measured membrane concentrations of PI(4,5)P2 in HeLa cells under three conditions, not an activity or property of a compound; it is uncertain whether they count as a result for a substance
Quantitative TIRF microscopy imaging of PM localization of EGFP tagged Smad2 WT and mutants was performed using custom-built internal reflection fluorescence microscope. WT HeLa cells or PI(4,5)P2 depleted HeLa cells were plated on the 8-well chambered cover glass (Lab-Tek, Thermo Fisher Scientific) at the density of 1 × 10^5 for 24 h. Endogenous Smad2 was suppressed using SiRNA and EGFP-Smad2 or mutants were transfected into cells using the jetPRIME system (Polyplus-transfection) according to the manufacturer's protocols. The transfected HeLa cells were serum starved for 16 h prior imaging. PM-bound EGFP-Smad2 fraction was monitored before and after stimulation with 10 ng/ml TGF-β up to 15 min. For EGFP-Smad2 WT, the effect of TβRI inhibition was monitored by incubating cells with 10 μM of SB-431542 for 36 h. Image analysis was performed using Image J software. Mean intensity of the EGFP-Smad2 signal was calculated for each time point, and final graph was plot by subtracting the mean intensity at 0 min from the mean intensity of each time point. More than ten cells were analyzed for each data point.

Molecule | PM localization after TGF-β stimulation (10 ng/ml TGF-β) | PM residence / dissociation of Smad2 (HeLa cells, 10 ng/ml TGF-β, SB-431542 10 μM for 36 h where used) | time of peak PM translocation after TGF-β stimulation (HeLa cells, 10 ng/ml TGF-β) [min] | PM translocation after PI(4,5)P2 depletion (HeLa cells, rapamycin-induced Inp54 recruitment)
B1 | clearly visible | – | – | –
B2 | little PM localization | – | – | –
B3 | able to migrate to the PM as fast as WT | slow dissociation | – | –
B4 | – | – | 5 | abrogated
